# B1: library; numbered along this chain (parent)
# chain: MAAAAAAAAEQQSSNGPVKKSMREKAVERRSVNKEHNSNFKAGYIPIDEDRLHKTGLRGRKGNLAICVIILLFILAVINLIITLVIWAVIRIGPNGCDSMEFHESGLLRFKQVSDMGVIHPLYKSTVGGRRNENLVITGNNQPIVFQQGTTKLSVENNKTSITSDIGMQFFDPRTQNILFSTDYETHEFHLPSGVKSLNVQKASTERITSNATSDLNIKVDGRAIVRGNEGVFIMGKTIEFHMGGNMELKAENSIILNGSVMVSTTRLPSSSSGDQLGSGDWVRYKLCMCADGTLFKVQVTSQNMGCQISDNPCGNTH
# Variants of: B1
# Assay: SGCB cell-surface expression functional score (HA stain, bin4 vs bin1, normalised to synonymous) (log10 ratio); higher = more cell-surface SGCB (functional)
# How it was run: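 Using lentivirus at MOI <0.1, HA-tagged, YFP-fused human beta-sarcoglycan codon-saturation libraries were put into HEK293 cells with stable alpha-, gamma- and delta-sarcoglycan expression, in duplicate transductions. YFP-positive cells were collected by sorting 72 hours later, grown 5–7 days, stained on ice with Alexa Fluor 647 anti-HA, fixed, sorted into four 5% intensity bins and amplicon-sequenced. The functional score takes the median, across codons and transductions, of the log ratio of highest-bin to lowest-bin variant frequency. Within each section, synonymous variants were scaled to mean 0, SD 0.5.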
row,Variant,SGCB cell-surface expression functional score (log10)
1,MAAAAAAAAEQQSSNGPVKKSMREKAVERRSVNKEHNSNFKAGYIPIDEDRLHKTGLRGRKGNLAICVIILLFILAVINLIITLVIWAVIRIGPNGCDSMEFHESGLLRFKQVSDMGVIHPLYKSTVGGRNNENLVITGNNQPIVFQQGTTKLSVENNKTSITSDIGMQFFDPRTQNILFSTDYETHEFHLPSGVKSLNVQKASTERITSNATSDLNIKVDGRAIVRGNEGVFIMGKTIEFHMGGNMELKAENSIILNGSVMVSTTRLPSSSSGDQLGSGDWVRYKLCMCADGTLFKVQVTSQNMGCQISDNPCGNTH [R131N],0.24
2,MAAAAAAAAEQQSSNGPVKKSMREKAVERRSVNKEHNSNFKAGYIPIDEDRLHKTGLRGRKGNLAICVIILLFILAVINLIITLVIWAVIRIGPNGCDSMEFHESGLLRFKQVSDMGVIHPLYKSTVGGRKNENLVITGNNQPIVFQQGTTKLSVENNKTSITSDIGMQFFDPRTQNILFSTDYETHEFHLPSGVKSLNVQKASTERITSNATSDLNIKVDGRAIVRGNEGVFIMGKTIEFHMGGNMELKAENSIILNGSVMVSTTRLPSSSSGDQLGSGDWVRYKLCMCADGTLFKVQVTSQNMGCQISDNPCGNTH [R131K],0.23
3,MAAAAAAAAEQQSSNGPVKKSMREKAVERRSVNKEHNSNFKAGYIPIDEDRLHKTGLRGRKGNLAICVIILLFILAVINLIITLVIWAVIRIGPNGCDSMEFHESGLLRFKQVSDMGVIHPLYKSTVGGRPNENLVITGNNQPIVFQQGTTKLSVENNKTSITSDIGMQFFDPRTQNILFSTDYETHEFHLPSGVKSLNVQKASTERITSNATSDLNIKVDGRAIVRGNEGVFIMGKTIEFHMGGNMELKAENSIILNGSVMVSTTRLPSSSSGDQLGSGDWVRYKLCMCADGTLFKVQVTSQNMGCQISDNPCGNTH [R131P],-0.13
4,MAAAAAAAAEQQSSNGPVKKSMREKAVERRSVNKEHNSNFKAGYIPIDEDRLHKTGLRGRKGNLAICVIILLFILAVINLIITLVIWAVIRIGPNGCDSMEFHESGLLRFKQVSDMGVIHPLYKSTVGGRVNENLVITGNNQPIVFQQGTTKLSVENNKTSITSDIGMQFFDPRTQNILFSTDYETHEFHLPSGVKSLNVQKASTERITSNATSDLNIKVDGRAIVRGNEGVFIMGKTIEFHMGGNMELKAENSIILNGSVMVSTTRLPSSSSGDQLGSGDWVRYKLCMCADGTLFKVQVTSQNMGCQISDNPCGNTH [R131V],0.31
5,MAAAAAAAAEQQSSNGPVKKSMREKAVERRSVNKEHNSNFKAGYIPIDEDRLHKTGLRGRKGNLAICVIILLFILAVINLIITLVIWAVIRIGPNGCDSMEFHESGLLRFKQVSDMGVIHPLYKSTVGGRYNENLVITGNNQPIVFQQGTTKLSVENNKTSITSDIGMQFFDPRTQNILFSTDYETHEFHLPSGVKSLNVQKASTERITSNATSDLNIKVDGRAIVRGNEGVFIMGKTIEFHMGGNMELKAENSIILNGSVMVSTTRLPSSSSGDQLGSGDWVRYKLCMCADGTLFKVQVTSQNMGCQISDNPCGNTH [R131Y],0.31
6,MAAAAAAAAEQQSSNGPVKKSMREKAVERRSVNKEHNSNFKAGYIPIDEDRLHKTGLRGRKGNLAICVIILLFILAVINLIITLVIWAVIRIGPNGCDSMEFHESGLLRFKQVSDMGVIHPLYKSTVGGRWNENLVITGNNQPIVFQQGTTKLSVENNKTSITSDIGMQFFDPRTQNILFSTDYETHEFHLPSGVKSLNVQKASTERITSNATSDLNIKVDGRAIVRGNEGVFIMGKTIEFHMGGNMELKAENSIILNGSVMVSTTRLPSSSSGDQLGSGDWVRYKLCMCADGTLFKVQVTSQNMGCQISDNPCGNTH [R131W],0.6
7,MAAAAAAAAEQQSSNGPVKKSMREKAVERRSVNKEHNSNFKAGYIPIDEDRLHKTGLRGRKGNLAICVIILLFILAVINLIITLVIWAVIRIGPNGCDSMEFHESGLLRFKQVSDMGVIHPLYKSTVGGRSNENLVITGNNQPIVFQQGTTKLSVENNKTSITSDIGMQFFDPRTQNILFSTDYETHEFHLPSGVKSLNVQKASTERITSNATSDLNIKVDGRAIVRGNEGVFIMGKTIEFHMGGNMELKAENSIILNGSVMVSTTRLPSSSSGDQLGSGDWVRYKLCMCADGTLFKVQVTSQNMGCQISDNPCGNTH [R131S],-0.09
8,MAAAAAAAAEQQSSNGPVKKSMREKAVERRSVNKEHNSNFKAGYIPIDEDRLHKTGLRGRKGNLAICVIILLFILAVINLIITLVIWAVIRIGPNGCDSMEFHESGLLRFKQVSDMGVIHPLYKSTVGGRLNENLVITGNNQPIVFQQGTTKLSVENNKTSITSDIGMQFFDPRTQNILFSTDYETHEFHLPSGVKSLNVQKASTERITSNATSDLNIKVDGRAIVRGNEGVFIMGKTIEFHMGGNMELKAENSIILNGSVMVSTTRLPSSSSGDQLGSGDWVRYKLCMCADGTLFKVQVTSQNMGCQISDNPCGNTH [R131L],0.13
9,MAAAAAAAAEQQSSNGPVKKSMREKAVERRSVNKEHNSNFKAGYIPIDEDRLHKTGLRGRKGNLAICVIILLFILAVINLIITLVIWAVIRIGPNGCDSMEFHESGLLRFKQVSDMGVIHPLYKSTVGGRTNENLVITGNNQPIVFQQGTTKLSVENNKTSITSDIGMQFFDPRTQNILFSTDYETHEFHLPSGVKSLNVQKASTERITSNATSDLNIKVDGRAIVRGNEGVFIMGKTIEFHMGGNMELKAENSIILNGSVMVSTTRLPSSSSGDQLGSGDWVRYKLCMCADGTLFKVQVTSQNMGCQISDNPCGNTH [R131T],-0.17
10,MAAAAAAAAEQQSSNGPVKKSMREKAVERRSVNKEHNSNFKAGYIPIDEDRLHKTGLRGRKGNLAICVIILLFILAVINLIITLVIWAVIRIGPNGCDSMEFHESGLLRFKQVSDMGVIHPLYKSTVGGRMNENLVITGNNQPIVFQQGTTKLSVENNKTSITSDIGMQFFDPRTQNILFSTDYETHEFHLPSGVKSLNVQKASTERITSNATSDLNIKVDGRAIVRGNEGVFIMGKTIEFHMGGNMELKAENSIILNGSVMVSTTRLPSSSSGDQLGSGDWVRYKLCMCADGTLFKVQVTSQNMGCQISDNPCGNTH [R131M],0.59
11,MAAAAAAAAEQQSSNGPVKKSMREKAVERRSVNKEHNSNFKAGYIPIDEDRLHKTGLRGRKGNLAICVIILLFILAVINLIITLVIWAVIRIGPNGCDSMEFHESGLLRFKQVSDMGVIHPLYKSTVGGRQNENLVITGNNQPIVFQQGTTKLSVENNKTSITSDIGMQFFDPRTQNILFSTDYETHEFHLPSGVKSLNVQKASTERITSNATSDLNIKVDGRAIVRGNEGVFIMGKTIEFHMGGNMELKAENSIILNGSVMVSTTRLPSSSSGDQLGSGDWVRYKLCMCADGTLFKVQVTSQNMGCQISDNPCGNTH [R131Q],-0.6
12,MAAAAAAAAEQQSSNGPVKKSMREKAVERRSVNKEHNSNFKAGYIPIDEDRLHKTGLRGRKGNLAICVIILLFILAVINLIITLVIWAVIRIGPNGCDSMEFHESGLLRFKQVSDMGVIHPLYKSTVGGRINENLVITGNNQPIVFQQGTTKLSVENNKTSITSDIGMQFFDPRTQNILFSTDYETHEFHLPSGVKSLNVQKASTERITSNATSDLNIKVDGRAIVRGNEGVFIMGKTIEFHMGGNMELKAENSIILNGSVMVSTTRLPSSSSGDQLGSGDWVRYKLCMCADGTLFKVQVTSQNMGCQISDNPCGNTH [R131I],0.65
13,MAAAAAAAAEQQSSNGPVKKSMREKAVERRSVNKEHNSNFKAGYIPIDEDRLHKTGLRGRKGNLAICVIILLFILAVINLIITLVIWAVIRIGPNGCDSMEFHESGLLRFKQVSDMGVIHPLYKSTVGGRRCENLVITGNNQPIVFQQGTTKLSVENNKTSITSDIGMQFFDPRTQNILFSTDYETHEFHLPSGVKSLNVQKASTERITSNATSDLNIKVDGRAIVRGNEGVFIMGKTIEFHMGGNMELKAENSIILNGSVMVSTTRLPSSSSGDQLGSGDWVRYKLCMCADGTLFKVQVTSQNMGCQISDNPCGNTH [N132C],0.33
14,MAAAAAAAAEQQSSNGPVKKSMREKAVERRSVNKEHNSNFKAGYIPIDEDRLHKTGLRGRKGNLAICVIILLFILAVINLIITLVIWAVIRIGPNGCDSMEFHESGLLRFKQVSDMGVIHPLYKSTVGGRRDENLVITGNNQPIVFQQGTTKLSVENNKTSITSDIGMQFFDPRTQNILFSTDYETHEFHLPSGVKSLNVQKASTERITSNATSDLNIKVDGRAIVRGNEGVFIMGKTIEFHMGGNMELKAENSIILNGSVMVSTTRLPSSSSGDQLGSGDWVRYKLCMCADGTLFKVQVTSQNMGCQISDNPCGNTH [N132D],-0.52
15,MAAAAAAAAEQQSSNGPVKKSMREKAVERRSVNKEHNSNFKAGYIPIDEDRLHKTGLRGRKGNLAICVIILLFILAVINLIITLVIWAVIRIGPNGCDSMEFHESGLLRFKQVSDMGVIHPLYKSTVGGRRHENLVITGNNQPIVFQQGTTKLSVENNKTSITSDIGMQFFDPRTQNILFSTDYETHEFHLPSGVKSLNVQKASTERITSNATSDLNIKVDGRAIVRGNEGVFIMGKTIEFHMGGNMELKAENSIILNGSVMVSTTRLPSSSSGDQLGSGDWVRYKLCMCADGTLFKVQVTSQNMGCQISDNPCGNTH [N132H],0.63
16,MAAAAAAAAEQQSSNGPVKKSMREKAVERRSVNKEHNSNFKAGYIPIDEDRLHKTGLRGRKGNLAICVIILLFILAVINLIITLVIWAVIRIGPNGCDSMEFHESGLLRFKQVSDMGVIHPLYKSTVGGRRFENLVITGNNQPIVFQQGTTKLSVENNKTSITSDIGMQFFDPRTQNILFSTDYETHEFHLPSGVKSLNVQKASTERITSNATSDLNIKVDGRAIVRGNEGVFIMGKTIEFHMGGNMELKAENSIILNGSVMVSTTRLPSSSSGDQLGSGDWVRYKLCMCADGTLFKVQVTSQNMGCQISDNPCGNTH [N132F],-0.11
17,MAAAAAAAAEQQSSNGPVKKSMREKAVERRSVNKEHNSNFKAGYIPIDEDRLHKTGLRGRKGNLAICVIILLFILAVINLIITLVIWAVIRIGPNGCDSMEFHESGLLRFKQVSDMGVIHPLYKSTVGGRRAENLVITGNNQPIVFQQGTTKLSVENNKTSITSDIGMQFFDPRTQNILFSTDYETHEFHLPSGVKSLNVQKASTERITSNATSDLNIKVDGRAIVRGNEGVFIMGKTIEFHMGGNMELKAENSIILNGSVMVSTTRLPSSSSGDQLGSGDWVRYKLCMCADGTLFKVQVTSQNMGCQISDNPCGNTH [N132A],0.15
18,MAAAAAAAAEQQSSNGPVKKSMREKAVERRSVNKEHNSNFKAGYIPIDEDRLHKTGLRGRKGNLAICVIILLFILAVINLIITLVIWAVIRIGPNGCDSMEFHESGLLRFKQVSDMGVIHPLYKSTVGGRRGENLVITGNNQPIVFQQGTTKLSVENNKTSITSDIGMQFFDPRTQNILFSTDYETHEFHLPSGVKSLNVQKASTERITSNATSDLNIKVDGRAIVRGNEGVFIMGKTIEFHMGGNMELKAENSIILNGSVMVSTTRLPSSSSGDQLGSGDWVRYKLCMCADGTLFKVQVTSQNMGCQISDNPCGNTH [N132G],0.13
19,MAAAAAAAAEQQSSNGPVKKSMREKAVERRSVNKEHNSNFKAGYIPIDEDRLHKTGLRGRKGNLAICVIILLFILAVINLIITLVIWAVIRIGPNGCDSMEFHESGLLRFKQVSDMGVIHPLYKSTVGGRREENLVITGNNQPIVFQQGTTKLSVENNKTSITSDIGMQFFDPRTQNILFSTDYETHEFHLPSGVKSLNVQKASTERITSNATSDLNIKVDGRAIVRGNEGVFIMGKTIEFHMGGNMELKAENSIILNGSVMVSTTRLPSSSSGDQLGSGDWVRYKLCMCADGTLFKVQVTSQNMGCQISDNPCGNTH [N132E],0.11

# — the supplement of paper PMC10266784
